Experimental data published in article PMC7115876 (Nature, 2020).

Biological target: human β-arrestin 1 (L68C, R169E) (human, UniProt P49407 2-418, L68C | R169E)
Assay: cryo-EM structure

Chain of human β-arrestin 1 (L68C, R169E) (P49407 2-418 L68C/R169E): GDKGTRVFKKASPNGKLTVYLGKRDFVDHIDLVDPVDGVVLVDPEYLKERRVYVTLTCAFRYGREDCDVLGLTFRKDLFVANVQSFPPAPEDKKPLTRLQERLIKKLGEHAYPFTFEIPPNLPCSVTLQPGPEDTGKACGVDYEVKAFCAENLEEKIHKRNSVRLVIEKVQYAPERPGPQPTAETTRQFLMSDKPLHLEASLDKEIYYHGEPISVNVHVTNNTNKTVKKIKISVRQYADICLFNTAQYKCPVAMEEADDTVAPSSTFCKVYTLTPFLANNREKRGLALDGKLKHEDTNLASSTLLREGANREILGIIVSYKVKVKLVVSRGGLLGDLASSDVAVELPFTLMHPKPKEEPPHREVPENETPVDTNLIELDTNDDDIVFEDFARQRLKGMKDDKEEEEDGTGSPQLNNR

binding result: binds
B1: β1AR6P (turkey β1AR construct β83 ligated by sortase A to the phosphopeptide V2R6P) (receptor)
chain: not shown
modifications: six phosphoresidues in the V2R6P part: GGGDE[pS]A[pT][pT]A[pS][pS][pS]LAKDTSS
